Here are results for 1 molecule from article PMC4031664 (Prion, 2013).

The target of this assay is T1, tandem OR repeats of mouse PrP (Mus musculus).
T1 chain: PHGGSWGQPHGGSWGQ
Briefly: crystal structure.

B1: Fab fragment of the monoclonal POM2 IgG (Fab, V domains shown)
VH: VKLQESGGEVVRPGTSVKVSCKASGYAFTNYLIEWVKQRPGQGLEWIGVINPGSGDTNYNEKFKGKATLTADKSSSTAYMQLNSLTSDDSAVYFCARSGAAAPTYYAMDYWGQGVSVTVSS
VL: DIVMTQSHKFMSTSVGDRVSITCKASQVGTALAWYQQKPGQSPKLLIYWASTRHTGVPDRFTGSGSGTDFTLTISNVQSEDLSDYFCQQYSSYPTFGGGTKLEIK
In the case of B1, the binding result is listed as “binds”.
